Results reported in paper PMC10813790, “Lymphocyte-Specific Protein 1 Regulates Expression and Stability of Endothelial Nitric Oxide Synthase” (Biomolecules, 2024).

Target: the molecule itself
Experiment: low-temperature SDS-PAGE; aorta lysates of WT and LSP1-KO mice in NP40-based non-denaturing buffer (crude or after eNOS immunoprecipitation), not boiled, no reducing agent, 7% gel at 4 °C; anti-eNOS immunoblot; dimer to monomers

B1: endothelial nitric oxide synthase (eNOS), mouse, native (enzyme, mouse (endogenous in aorta), UniProt P70313 1-1202, looked up)
chain: MGNLKSVGQEPGPPCGLGLGLGLGLCGKQGPASPAPEPSQAPAPPSPTRPAPDHSPPLTRPPDGPRFPRVKNWEVGSITYDTLSAQAQQDGPCTSRRCLGSLVFPRKLQSRPTQGPSPTEQLLGQARDFINQYYNSIKRSGSQAHEQRLQEVEAEVAATGTYQLRESELVFGAKQAWRNAPRCVGRIQWGKLQVFDARDCRTAQEMFTYICNHIKYATNRGNLRSAITVFPQRCPGRGDFRIWNSQLIRYAGYRQQDGSVRGDPANVEITELCIQHGWTPGNGRFDVLPLLLQAPDEPPELFTLPPEMVLEVPLEHPTLEWFAALGLRWYALPAVSNMLLEIGGLEFPAAPFSGWYMSSEIGMRDLCDPHRYNILEDVAVCMDLDTRTTSSLWKDKAAVEINVAVLHSYQLAKVTIVDHHAATASFMKHLENEQKARGGCPADWAWIVPPISGSLTPVFHQEMVNYFLSPAFRYQPDPWKGSAAKGAGITRKKTFKEVANAVKISASLMGTVMAKRVKATILYGSETGRAQSYAQQLGRLFRKAFDPRVLCMDEYDVVSLEHEALVLVVTSTFGNGDPPENGESFAAALMEMSGPYNSSPRPEQHKSYKIRFNSVSCSDPLVSSWRRKRKESSNTDSAGALGTLRFCVFGLGSRAYPHFCAFARAVDTRLEELGGERLLQLGQGDELCGQEEAFRGWAQAAFQAACETFCVGEDAKAAARDIFSPKRSWKRQRYRLSTQAESLQLLPGLTHVHRRKMFQATILSVENLQSSKSTRATILVRLDTGGQEGLQYQPGDHIGVCPPNRPGLVEALLSRVEDPPPSTEPVAVEQLEKGSPGGPPPGWVRDPRLPPCTLRQALTYFLDITSPPSPRLLRLLSTLAEESSEQQELEALSQDPRRYEEWKWFSCPTLLEVLEQFPSVALPAPLILTQLPLLQPRYYSVSSAPSAHPGEIHLTIAVLAYRTQDGLGPLHYGVCSTWMSQLKAGDPVPCFIRGAPSFRLPPDPNLPCILVGPGTGIAPFRGFWQDRLHDIEIKGLQPAPMTLVFGCRCSQLDHLYRDEVLDAQQRGVFGQVLTAFSRDPGSPKTYVQDLLRTELAAEVHRVLCLEQGHMFVCGDVTMATSVLQTVQRILATEGGMELDEAGDVIGVLRDQQRYHEDIFGLTLRTQEVTSRIRTQSFSLQERQLRGAVPWSFDPPGPEIPGS
notes: mouse endothelial nitric oxide synthase, native protein of the aorta; dimer band at 260 kDa; Written as the protomer, for the row of the protein with itself; also called mouse eNOS; WT eNOS; source: endogenous, aorta lysate of 129/SvJ wild-type mice (also LSP1-KO mice)
stoichiometry N: 2
